Measurements as given in publication PMC3668167, “Ski-interacting protein (SKIP) interacts with androgen receptor in the nucleus and modulates androgen-dependent transcription” (BMC Biochemistry, 2013).

B1: VP16 activation domain fusion of AR residues 1-538 (pVP16-AR1-538) (domain or fragment, human, UniProt P10275 1-538, looked up)
chain: MEVQLGLGRVYPRPPSKTYRGAFQNLFQSVREVIQNPGPRHPEAASAAPPGASLLLLQQQQQQQQQQQQQQQQQQQQQQQETSPRQQQQQQGEDGSPQAHRRGPTGYLVLDEEQQPSQPQSALECHPERGCVPEPGAAVAASKGLPQQLPAPPDEDDSAAPSTLSLLGPTFPGLSSCSADLKDILSEASTMQLLQQQQQEAVSEGSSSGRAREASGAPTSSKDNYLGGTSTISDNAKELCKAVSVSMGLGVEALEHLSPGEQLRGDCMYAPLLGVPPAVRPTPCAPLAECKGSLLDDSAGKSTEDTAEYSPFKGGYTKGLEGESLGCSGSAAAGSSGTLELPSTLSLYKSGALDEAAAYQSRDYYNFPLALAGPPPPPPPPHPHARIKLENPLDYGSAWAAAAAQCRYGDLASLHGAGAAGPGSGSPSAAASSSWHTLFTAEEGQLYGPCGGGGGGGGGGGGGGGGGGGGGGGEAGAVAPYGYTRPPQGLAGQESDFTAPDVWYPGGMVSRVPYPSPTCVKSEMGPWMDSYSGPYGDM
notes: androgen receptor, human, N-terminal residues 1-538; also called AR N-terminus; source: HEK293, transfected, mammalian two-hybrid fusion
B2: HA-tagged Ski-interacting protein (SKIP-pCGN) (natural protein, human, UniProt Q13573 1-536, looked up)
chain: MALTSFLPAPTQLSQDQLEAEEKARSQRSRQTSLVSSRREPPPYGYRKGWIPRLLEDFGDGGAFPEIHVAQYPLDMGRKKKMSNALAIQVDSEGKIKYDAIARQGQSKDKVIYSKYTDLVPKEVMNADDPDLQRPDEEAIKEITEKTRVALEKSVSQKVAAAMPVRAADKLAPAQYIRYTPSQQGVAFNSGAKQRVIRMVEMQKDPMEPPRFKINKKIPRGPPSPPAPVMHSPSRKMTVKEQQEWKIPPCISNWKNAKGYTIPLDKRLAADGRGLQTVHINENFAKLAEALYIADRKAREAVEMRAQVERKMAQKEKEKHEEKLREMAQKARERRAGIKTHVEKEDGEARERDEIRHDRRKERQHDRNLSRAAPDKRSKLQRNENRDISEVIALGVPNPRTSNEVQYDQRLFNQSKGMDSGFAGGEDEIYNVYDQAWRGGKDMAQSIYRPSKNLDKDMYGDDLEARIKTNRFVPDKEFSGSDRRQRGREGPVQFEEDPFGLDKFLEEAKQHGGSKRPSDSSRPKEHEHEGKKRRKE

What was measured:
[1] = target: T1, GAL4 DNA binding domain fusion of AR-LBD residues 642-917 (pM-GAL4DBD-AR642-917) (human, UniProt P10275 642-917); assay: two-hybrid; mammalian two-hybrid in HEK293 cells, GAL4(5)E1bTATA-luciferase reporter, GAL4DBD-AR642-917 with pVP16-AR1-538, SKIP-pCGN co-expressed, 1 nM DHT; activity relative to empty vectors without DHT; conditions: partners not purified
T1 construct: also called AR-LBD 642-917; AR C-terminus; source: HEK293, transfected, mammalian two-hybrid fusion
T1 sequence (looked up): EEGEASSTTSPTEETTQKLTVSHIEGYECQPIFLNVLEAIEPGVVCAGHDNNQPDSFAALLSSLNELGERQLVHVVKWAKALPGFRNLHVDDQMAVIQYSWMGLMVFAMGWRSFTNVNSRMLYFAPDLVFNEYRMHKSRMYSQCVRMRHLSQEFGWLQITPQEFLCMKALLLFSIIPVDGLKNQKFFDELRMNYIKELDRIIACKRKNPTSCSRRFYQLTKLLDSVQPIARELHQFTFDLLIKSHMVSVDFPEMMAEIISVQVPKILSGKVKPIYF

[2] = target: T1, GAL4 DNA binding domain fusion of …; assay: two-hybrid; mammalian two-hybrid in HEK293 cells, GAL4(5)E1bTATA-luciferase reporter, GAL4DBD-AR642-917 with pVP16-AR1-538, empty pCGN (no SKIP), 1 nM DHT; activity relative to empty vectors without DHT; conditions: partners not purified
[3] = target: T1, GAL4 DNA binding domain fusion of …; assay: cell-based or functional assay
[4] = target: T2, GAL4 DNA binding domain fusion of the AR AF-1 fragment, residues 1-555 (pM-GAL4DBD-AR-AF1) (human, UniProt P10275 1-555); assay: cell-based or functional assay
T2 sequence (looked up): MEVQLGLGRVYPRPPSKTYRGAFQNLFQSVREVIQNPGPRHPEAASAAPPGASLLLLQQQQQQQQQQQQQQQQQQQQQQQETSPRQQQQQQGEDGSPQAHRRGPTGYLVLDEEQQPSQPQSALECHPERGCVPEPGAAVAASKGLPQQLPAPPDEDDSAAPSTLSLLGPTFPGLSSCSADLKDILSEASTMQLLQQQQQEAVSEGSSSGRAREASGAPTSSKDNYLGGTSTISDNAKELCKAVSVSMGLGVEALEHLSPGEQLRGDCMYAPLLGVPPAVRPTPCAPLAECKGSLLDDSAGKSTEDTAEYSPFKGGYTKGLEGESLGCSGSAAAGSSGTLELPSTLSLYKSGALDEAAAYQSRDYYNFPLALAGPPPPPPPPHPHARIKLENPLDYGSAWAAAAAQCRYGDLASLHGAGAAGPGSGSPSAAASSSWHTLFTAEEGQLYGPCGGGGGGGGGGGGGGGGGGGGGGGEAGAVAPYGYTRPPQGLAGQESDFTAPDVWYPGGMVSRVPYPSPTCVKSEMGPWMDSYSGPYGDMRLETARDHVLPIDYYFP

Binder	relative luciferase activity, fold over control (SKIP co-expressed) [1] [fold]	relative luciferase activity, fold over control [2] [fold]	GAL4 luciferase reporter in HEK293 cells: ligand-dependent (1 nM DHT) activation of the AR-LBD 642-917 construct with overexpressed SKIP (Figure 2 column 7) [3] [fold]	mammalian one-hybrid luciferase reporter in HEK293 cells: AR-AF-1 (GAL4DBD-AR1-555) ligand-independent transcriptional activity with overexpressed SKIP against without SKIP [4] [fold]
B1	~300	12		
B2			9	~5
